Reference: the supplement of paper PMC11316812
± gives the standard deviation of the averaged measurements.

Columns and labels:
hTERT-HMEC = test: percentage of EdU-negative (G0-arrested) nuclei per well, 72 h; higher = more G0 arrest; details: reference: sequence is the full UniProt precursor, the tested protein was the secreted form or ectodomain
MCF7 = test: as above; details: reference: sequence is the full UniProt precursor, the tested protein was the secreted form or ectodomain
[1] = protein concentration 0.0225 µM
[2] = protein concentration 0.00625 µM
[3] = protein concentration 0.0625 µM
[4] = protein concentration 0.02175 µM
[5] = protein concentration 0.2175 µM
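Also: secreted proteins added to cultured cells, EdU pulse at the end, nuclei found by Hoechst imaging, EdU status from nuclear versus surrounding ring intensity ratio, PBS as neutral control.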

Substance	percentage of EdU-negative (hTERT-HMEC; [1]) [%]	percentage of EdU-negative (hTERT-HMEC; protein concentration 0.225 µM) [%]	percentage of EdU-negative (MCF7; [1]) [%]	percentage of EdU-negative (MCF7; protein concentration 0.225 µM) [%]	also measured
MPPRGPASELLLLRLLLLGAATAAPLAPRPSKEELTRCLAEVVTEVLTVGQVQRGPCTALLHKELCGTEPHGCASTEEKGLLLGDFKKQEAGKMRSSQEVRDEEEEEVAERTHKSEVQEQAIRMQGHRQLHQEEDEEEEKEERKRGPMETFEDLWQRHLENGGDLQKRVAEKASDKETAQFQAEEKGVRVLGGDRSLWQGAERGGGERREDLPHHHHHHHQPEAEPRQEKEEASEREEKEVEQLEHLRDELKKVTETLGEQLRREG [I3L3R5]	5.07 ± 1.4	7.54 ± 0.57	26.1 ± 0.53	26.5 ± 0.58	
MPGRSCVALVLLAAAVSCAVAQHAPPWTEDCRKSTYPPSGPTYRGAVPWYTINLDLPPYKRWHELMLDKAPVLKVIVNSLKNMINTFVPSGKIMQVVDEKLPGLLGNFPGPFEEEMKGIAAVTDIPLGEIISFNIFYELFTICTSIVAEDKKGHLIHGRNMDFGVFLGWNINNDTWVITEQLKPLTVNLDFQRNNKTVFKASSFAGYVGMLTGFKPGLFSLTLNERFSINGGYLGILEWILGKKDVMWIGFLTRTVLENSTSYEEAKNLLTKTKILAPAYFILGGNQSGEGCVITRDRKESLDVYELDAKQGRWYVVQTNYDRWKHPFFLDDRRTPAKMCLNRTSQENISFETMYDVLSTKPVLNKLTVYTTLIDVTKGQFETYLRDCPDPCIGW	4.75 ± 0.61	12.9 ± 1.1	26.7 ± 2.9	26.1 ± 0.96	
Q9BXP8					percentage of EdU-negative (hTERT-HMEC; [2]): 5.11 ± 0.6%; percentage of EdU-negative (hTERT-HMEC; [3]): 6.47 ± 0.67%; percentage of EdU-negative (MCF7; [2]): 26.6 ± 1.2%; percentage of EdU-negative (MCF7; [3]): 28.7 ± 1.2%
MLLWVILLVLAPVSGQFARTPRPIIFLQPPWTTVFQGERVTLTCKGFRFYSPQKTKWYHRYLGKEILRETPDNILEVQESGEYRCQAQGSPLSSPVHLDFSSASLILQAPLSVFEGDSVVLRCRAKAEVTLNNTIYKNDNVLAFLNKRTDFHIPHACLKDNGAYRCTGYKESCCPVSSNTVKIQVQEPFTRPVLRASSFQPISGNPVTLTCETQLSLERSDVPLRFRFFRDDQTLGLGWSLSPNFQITAMWSKDSGFYWCKAATMPYSVISDSPRSWIQVQIPASHPVLTLSPEKALNFEGTKVTLHCETQEDSLRTLYRFYHEGVPLRHKSVRCERGASISFSLTTENSGNYYCTADNGLGAKPSKAVSLSVTVPVSHPVLNLSSPEDLIFEGAKVTLHCEAQRGSLPILYQFHHEGAALERRSANSAGGVAISFSLTAEHSGNYYCTADNGFGPQRSKAVSLSVTVPVSHPVLTLSSAEALTFEGATVTLHCEVQRGSPQILYQFYHEDMPLWSSSTPSVGRVSFSFSLTEGHSGNYYCTADNGFGPQRSEVVSLFVTVPVSRPILTLRVPRAQAVVGDLLELHCEAPRGSPPILYWFYHEDVTLGSSSAPSGGEASFNLSLTAEHSGNYSCEANNGLVAQHSDTISLSVIVPVSRPILTFRAPRAQAVVGDLLELHCEALRGSSPILYWFYHEDVTLGKISAPSGGGASFNLSLTTEHSGIYSCEADNGLEAQRSEMVTLKVAVPVSRPVLTLRAPGTHAAVGDLLELHCEALRGSPLILYRFFHEDVTLGNRSSPSGGASLNLSLTAEHSGNYSCEADNGLGAQRSETVTLYITGLTANRSGPFATGVAGGLLSIAGLAAGALLLYCWLSRKAGRKPASDPARSPSDSDSQEPTYHNVPAWEELQPVYTNANPRGENVVYSEVRIIQEKKKHAVASDPRHLRNKGSPIIYSEVKVASTPVSGSLFLASSAPHR [Q96RD9]	4.23 ± 0.27	5.41 ± 0.94	26 ± 0.75	31.1 ± 3.2	
MSAVLLLALLGFILPLPGVQALLCQFGTVQHVWKVSDLPRQWTPKNTSCDSGLGCQDTLMLIESGPQVSLVLSKGCTEAKDQEPRVTEHRMGPGLSLISYTFVCRQEDFCNNLVNSLPLWAPQPPADPGSLRCPVCLSMEGCLEGTTEEICPKGTTHCYDGLLRLRGGGIFSNLRVQGCMPQPGCNLLNGTQEIGPVGMTENCNRKDFLTCHRGTTIMTHGNLAQEPTDWTTSNTEMCEVGQVCQETLLLLDVGLTSTLVGTKGCSTVGAQNSQKTTIHSAPPGVLVASYTHFCSSDLCNSASSSSVLLNSLPPQAAPVPGDRQCPTCVQPLGTCSSGSPRMTCPRGATHCYDGYIHLSGGGLSTKMSIQGCVAQPSSFLLNHTRQIGIFSAREKRDVQPPASQHEGGGAEGLESLTWGVGLALAPALWWGVVCPSC [Q8N6Q3]					percentage of EdU-negative (hTERT-HMEC; [4]): 4.87 ± 0.96%; percentage of EdU-negative (hTERT-HMEC; [5]): 6.31 ± 0.15%; percentage of EdU-negative (MCF7; [4]): 26.1 ± 2.3%; percentage of EdU-negative (MCF7; [5]): 26.7 ± 1%
MDWSFFRVVAMLFIFLVVVEVNSEFRIQVRDYNTKNGTIKWHSIRRQKREWIKFAAACREGEDNSKRNPIAKIHSDCAANQQVTYRISGVGIDQPPYGIFVINQKTGEINITSIVDREVTPFFIIYCRALNSMGQDLERPLELRVRVLDINDNPPVFSMATFAGQIEENSNANTLVMILNATDADEPNNLNSKIAFKIIRQEPSDSPMFIINRNTGEIRTMNNFLDREQYGQYALAVRGSDRDGGADGMSAECECNIKILDVNDNIPYMEQSSYTIEIQENTLNSNLLEIRVIDLDEEFSANWMAVIFFISGNEGNWFEIEMNERTNVGILKVVKPLDYEAMQSLQLSIGVRNKAEFHHSIMSQYKLKASAISVTVLNVIEGPVFRPGSKTYVVTGNMGSNDKVGDFVATDLDTGRPSTTVRYVMGNNPADLLAVDSRTGKLTLKNKVTKEQYNMLGGKYQGTILSIDDNLQRTCTGTININIQSFGNDDRTNTEPNTKITTNTGRQESTSSTNYDTSTTSTDSSQVYSSEPGNGAKDLLSDNVHFGPAGIGLLIMGFLVLGLVPFLMICCDCGGAPRSAAGFEPVPECSDGAIHSWAVEGPQPEPRDITTVIPQIPPDNANIIECIDNSGVYTNEYGGREMQDLGGGERMTGFELTEGVKTSGMPEICQEYSGTLRRNSMRECREGGLNMNFMESYFCQKAYAYADEDEGRPSNDCLLIYDIEGVGSPAGSVGCCSFIGEDLDDSFLDTLGPKFKKLADISLGKESYPDLDPSWPPQSTEPVCLPQETEPVVSGHPPISPHFGTTTVISESTYPSGPGVLHPKPILDPLGYGNVTVTESYTTSDTLKPSVHVHDNRPASNVVVTERVVGPISGADLHGMLEMPDLRDGSNVIVTERVIAPSSSLPTSLTIHHPRESSNVVVTERVIQPTSGMIGSLSMHPELANAHNVIVTERVVSGAGVTGISGTTGISGGIGSSGLVGTSMGAGSGALSGAGISGGGIGLSSLGGTASIGHMRSSSDHHFNQTIGSASPSTARSRITKYSTVQYSK					percentage of EdU-negative (hTERT-HMEC; protein concentration 0.014 µM): 5.37 ± 1.1%; percentage of EdU-negative (hTERT-HMEC; protein concentration 0.14 µM): 5.1 ± 0.58%; percentage of EdU-negative (MCF7; protein concentration 0.014 µM): 25.17 ± 0.14%; percentage of EdU-negative (MCF7; protein concentration 0.14 µM): 28.1 ± 0.79%
